Measurements taken from patent US20190106509A1 (PROTHIX B V, published 2019).
Positions count from the first letter of the chain named. Numbers in names are those of the source. Where two headings read alike, the source gives them in different places.

B1: mouse mAb anti-FXI 34.2 (antibody, V domains shown)
VH: QVQLQQPGSELVRPGASVKLSCKASGYTFTRYWMHWVKQRHGQGLEWIGNIYPDSDSTNYDEKFRTKATLTADTSSSTAYMHLSSLTSEDSAVYYCTRMGFYAMDYWGQGTSVTVSS
VL: NIVMTQSPKSMSMSVGERVTLSCKASENVVTYVSWFQHKPEQSPKLLIYGASNRYTGVPDRFTGSGSATDFTLTISSVQAEDLADYHCGQSYSYPLTFGAGTKLELKR
notes: Mouse IgG purified from hybridoma supernatant by protein G
B2: composite human mAb VH2/Vκ2 (antibody, V domains shown)
VH: QVQLVQSGSELKKPGASVKLSCKASGYTFTRYWMHWVKQAPGQGLEWIGNIYPDSDSTNYDEKFRTRATLTADTSTSTAYMELSSLRSEDTAVYYCTRMGFYAMDYWGQGTTVTVSS
VL: NIVMTQSPSSLSASVGDRVTITCKASENVVTYVSWFQQKPGQAPKLLIYGASNRYTGVPDRFSGSGSATDFTLTISSLQAEDVADYHCGQSYSYPLTFGQGTKLEIKR
notes: Human IgG4 (S241P hinge mutant) heavy chain and human kappa light chain
B3: composite human mAb VH3/Vκ1 (antibody, V domains shown)
VH: B2 VH with K38R, A68V
VL: B2 VL with S63T
notes: as for B2
B4: composite human mAb VH3/Vκ3 (antibody, V domains shown)
VH: B2 VH with K38R, A68V
VL: B2 VL with N1D, A68G
notes: as for B2
B5: composite human mAb VH3/Vκ2 (antibody, V domains shown)
VH: B2 VH with K38R, A68V
VL: B2 VL
notes: as for B2
B6: composite human mAb VH1/Vκ1 (antibody, V domains shown)
VH: B2 VH with P41H, E82H, R87T, T91S, T112S
VL: B2 VL with S63T
notes: as for B2
B7: composite human mAb VH2/Vκ1 (antibody, V domains shown)
VH: B2 VH
VL: B2 VL with S63T
notes: as for B2
B8: composite human mAb VH2/Vκ4 (antibody, V domains shown)
VH: B2 VH
VL: B2 VL with N1D, A68G, D85T
notes: as for B2
B9: composite human mAb VH1/Vκ3 (antibody, V domains shown)
VH: B2 VH with P41H, E82H, R87T, T91S, T112S
VL: B2 VL with N1D, A68G
notes: as for B2
B10: composite human mAb VH1/Vκ4 (antibody, V domains shown)
VH: B2 VH with P41H, E82H, R87T, T91S, T112S
VL: B2 VL with N1D, A68G, D85T
notes: as for B2
B11: composite human mAb VH3/Vκ4 (antibody, V domains shown)
VH: B2 VH with K38R, A68V
VL: B2 VL with N1D, A68G, D85T
notes: as for B2
B12: composite human mAb VH2/Vκ3 (antibody, V domains shown)
VH: B2 VH
VL: B2 VL with N1D, A68G
notes: as for B2
B13: composite human mAb VH1/Vκ2 (antibody, V domains shown)
VH: B2 VH with P41H, E82H, R87T, T91S, T112S
VL: B2 VL
notes: as for B2

Key:
[1] = target: T1, human coagulation factor XI (FXI) (human, UniProt P03951 19-625); test: SPR (Biacore), FXI immobilized on CM5 chip, mAb as analyte
T1 construct: mature; also called plasma FXI; human FXI
Protocol: (§1) Surface plasmon resonance was on a Biacore 2000 (GE Healthcare) equipped with a research-grade cm5 sensor chip to assess the affinity constants of the mAbs for FXI. Factor XI was immobilized using amine-coupling chemistry. the surface was activated for 7 min with a 1:1 mixture of 0.1 M N-hydroxysuccinimide and 0.1 M 3-(N,N-dimethylamino) propyl-N-ethylcarbodiimide at a flow rate of 10 l per min. The ligand at a concentration of 10 μg/ml in 10 mM sodium acetate, pH 5.5, was immobilized at a density of 1000 ru. An untreated flow cell served as a reference surface. All the surfaces were blocked with a 7 min injection of 1 M ethanolamine, pH 8.0. The following protocol was used to assess kinetic binding of the mAbs to FXI. […] The complex was allowed to associate and dissociate for 360 and 600 seconds, respectively. The surfaces were regenerated with a 10 seconds injection of 50 mM NaOH. Triplicate injections (in random order) of each sample and a buffer blank were flowed over the two surfaces. Data were collected at a rate of 1 Hz. The data were fit to a simple 1:1 interaction model using the global data analysis option available within BiaEvaluation 4.1 software.

[2] = target: T1, human coagulation factor XI (FXI); test: cell-based or functional assay
[3] = target: T1, human coagulation factor XI (FXI); test: SPR (Biacore), FXI immobilized on CM5 chip, mAb as analyte; remark: listed apart in the source
Protocol: as §1

[4] = target: T1, human coagulation factor XI (FXI); test: competition ELISA on coated human FXI; competitor biotinylated murine mAb anti-FXI 34.2
Description: The binding of the biotinylated antibody was detected with streptavidin-HRP (Sigma) and OPD substrate (Sigma. The reaction was stopped with 3M HCl, absorbance read at 490 nm on a Dynex Technologies MRX TC II plate reader and the binding curves plotted.

Row | Binder | Kd [1] | APTT (% NPP) [2] | Kd [3] | Relative IC50 [4]
1 | B1 | 0.2 nM |  |  | 
2 | B2 |  | 243 % NPP | 0.88 nM | 0.92 relative to IC50 of mouse-human chimeric mAb anti-FXI 34.2
3 | B3 |  | 250 % NPP | 0.13 nM | 0.87 relative to IC50 of mouse-human chimeric mAb anti-FXI 34.2
4 | B4 |  | 256 % NPP | 0.081 nM | 0.99 relative to IC50 of mouse-human chimeric mAb anti-FXI 34.2
5 | B5 |  | 255 % NPP | 0.079 nM | 0.87 relative to IC50 of mouse-human chimeric mAb anti-FXI 34.2
6 | B6 |  | 253 % NPP | 0.12 nM | 0.75 relative to IC50 of mouse-human chimeric mAb anti-FXI 34.2
7 | B7 |  | 252 % NPP | 0.24 nM | 0.84 relative to IC50 of mouse-human chimeric mAb anti-FXI 34.2
8 | B8 |  | 259 % NPP | 0.062 nM | 0.98 relative to IC50 of mouse-human chimeric mAb anti-FXI 34.2
9 | B9 |  | 257 % NPP | 0.17 nM | 0.91 relative to IC50 of mouse-human chimeric mAb anti-FXI 34.2
10 | B10 |  | 260 % NPP | 0.35 nM | 0.89 relative to IC50 of mouse-human chimeric mAb anti-FXI 34.2
11 | B11 |  | 255 % NPP | 0.42 nM | 1.13 relative to IC50 of mouse-human chimeric mAb anti-FXI 34.2
12 | B12 |  | 247 % NPP | 0.51 nM | 0.93 relative to IC50 of mouse-human chimeric mAb anti-FXI 34.2
13 | B13 |  | 248 % NPP | 0.25 nM | 0.69 relative to IC50 of mouse-human chimeric mAb anti-FXI 34.2
